Results as given in IntAct's records for PubMed 29858488.

B1: Motile sperm domain-containing protein 2 (Homo sapiens), Q8NHP6 (parent)
chain: MAENHAQNKAKLISETRRRFEAEYVTDKSDKYDARDVERLQQDDNWVESYLSWRHNIVDETLKMLDESFQWRKEISVNDLNESSIPRWLLEIGVIYLHGYDKEGNKLFWIRVKYHVKDQKTILDKKKLIAFWLERYAKRENGKPVTVMFDLSETGINSIDMDFVRFIINCFKVYYPKYLSKIVIFDMPWLMNAAFKIVKTWLGPEAVSLLKFTSKNEVQDYVSVEYLPPHMGGTDPFKYSYPPLVDDDFQTPLCENGPITSEDETSSKEDIESDGKETLETISNEEQTPLLKKINPTESTSKAEENEKVDSKVKAFKKPLSVFKGPLLHISPAEELYFGSTESGEKKTLIVLTNVTKNIVAFKVRTTAPEKYRVKPSNSSCDPGASVDIVVSPHGGLTVSAQDRFLIMAAEMEQSSGTGPAELTQFWKEVPRNKVMEHRLRCHTVESSKPNTLTLKDNAFNMSDKTSEDICLQLSRLLESNRKLEDQVQRCIWFQQLLLSLTMLLLAFVTSFFYLLYS
partner: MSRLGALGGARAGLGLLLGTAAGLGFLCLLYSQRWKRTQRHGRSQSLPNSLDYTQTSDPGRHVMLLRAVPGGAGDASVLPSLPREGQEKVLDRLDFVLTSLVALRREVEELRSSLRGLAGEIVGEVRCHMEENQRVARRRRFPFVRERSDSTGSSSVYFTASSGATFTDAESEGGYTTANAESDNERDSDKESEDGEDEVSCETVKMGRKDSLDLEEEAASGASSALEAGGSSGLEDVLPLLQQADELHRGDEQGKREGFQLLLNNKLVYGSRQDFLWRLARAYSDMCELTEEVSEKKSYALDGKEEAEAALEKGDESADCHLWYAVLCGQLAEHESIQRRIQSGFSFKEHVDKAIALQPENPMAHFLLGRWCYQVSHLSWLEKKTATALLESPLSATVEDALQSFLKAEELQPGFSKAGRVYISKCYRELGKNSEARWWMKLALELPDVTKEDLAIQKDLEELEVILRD
B2: Motile sperm domain-containing protein 2 (Homo sapiens), Q8NHP6 (parent)
chain: B1 chain
partner: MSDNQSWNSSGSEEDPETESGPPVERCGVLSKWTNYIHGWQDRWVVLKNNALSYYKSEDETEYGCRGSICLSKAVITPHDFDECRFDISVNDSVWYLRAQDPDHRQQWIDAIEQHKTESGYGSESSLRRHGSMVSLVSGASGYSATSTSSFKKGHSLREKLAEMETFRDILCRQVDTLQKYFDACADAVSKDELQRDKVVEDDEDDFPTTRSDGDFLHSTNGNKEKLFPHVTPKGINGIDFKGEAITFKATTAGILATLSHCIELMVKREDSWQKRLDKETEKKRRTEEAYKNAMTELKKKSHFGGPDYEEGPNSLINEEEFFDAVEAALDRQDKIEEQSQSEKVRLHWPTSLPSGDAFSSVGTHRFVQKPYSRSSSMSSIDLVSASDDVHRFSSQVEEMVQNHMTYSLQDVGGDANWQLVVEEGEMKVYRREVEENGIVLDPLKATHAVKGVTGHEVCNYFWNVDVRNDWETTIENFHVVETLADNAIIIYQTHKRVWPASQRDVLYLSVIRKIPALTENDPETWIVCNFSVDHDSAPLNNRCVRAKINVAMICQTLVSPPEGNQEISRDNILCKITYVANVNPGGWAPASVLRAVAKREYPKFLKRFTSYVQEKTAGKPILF
B3: Oxysterol-binding protein-related protein 1 (Homo sapiens), Q9BXW6 (parent)
chain: MNTEAEQQLLHHARNGNAEEVRQLLETMARNEVIADINCKGRSKSNLGWTPLHLACYFGHRQVVQDLLKAGAEVNVLNDMGDTPLHRAAFTGRKELVMLLLEYNADTTIVNGSGQTAKEVTHAEEIRSMLEAVERTQQRKLEELLLAAAREGKTTELTALLNRPNPPDVNCSDQLGNTPLHCAAYRAHKQCALKLLRSGADPNLKNKNDQKPLDLAQGAEMKHILVGNKVIYKALKRYEGPLWKSSRFFGWRLFWVVLEHGVLSWYRKQPDAVHNIYRQGCKHLTQAVCTVKSTDSCLFFIKCFDDTIHGFRVPKNSLQQSREDWLEAIEEHSAYSTHYCSQDQLTDEEEEDTVSAADLKKSLEKAQSCQQRLDREISNFLKMIKECDMAKEMLPSFLQKVEVVSEASRETCVALTDCLNLFTKQEGVRNFKLEQEQEKNKILSEALETLATEHHELEQSLVKGSPPASILSEDEFYDALSDSESERSLSRLEAVTARSFEEEGEHLGSRKHRMSEEKDCGGGDALSNGIKKHRTSLPSPMFSRNDFSIWSILRKCIGMELSKITMPVIFNEPLSFLQRLTEYMEHTYLIHKASSLSDPVERMQCVAAFAVSAVASQWERTGKPFNPLLGETYELVRDDLGFRLISEQVSHHPPISAFHAEGLNNDFIFHGSIYPKLKFWGKSVEAEPKGTITLELLEHNEAYTWTNPTCCVHNIIVGKLWIEQYGNVEIINHKTGDKCVLNFKPCGLFGKELHKVEGYIQDKSKKKLCALYGKWTECLYSVDPATFDAYKKNDKKNTEEKKNSKQMSTSEELDEMPVPDSESVFIIPGSVLLWRIAPRPPNSAQMYNFTSFAMVLNEVDKDMESVIPKTDCRLRPDIRAMENGEIDQASEEKKRLEEKQRAARKNRSKSEEDWKTRWFHQGPNPYNGAQDWIYSGSYWDRNYFNLPDIY
partner: B1 chain
B4: Motile sperm domain-containing protein 2 (Homo sapiens), Q8NHP6 (parent)
chain: B1 chain
partner: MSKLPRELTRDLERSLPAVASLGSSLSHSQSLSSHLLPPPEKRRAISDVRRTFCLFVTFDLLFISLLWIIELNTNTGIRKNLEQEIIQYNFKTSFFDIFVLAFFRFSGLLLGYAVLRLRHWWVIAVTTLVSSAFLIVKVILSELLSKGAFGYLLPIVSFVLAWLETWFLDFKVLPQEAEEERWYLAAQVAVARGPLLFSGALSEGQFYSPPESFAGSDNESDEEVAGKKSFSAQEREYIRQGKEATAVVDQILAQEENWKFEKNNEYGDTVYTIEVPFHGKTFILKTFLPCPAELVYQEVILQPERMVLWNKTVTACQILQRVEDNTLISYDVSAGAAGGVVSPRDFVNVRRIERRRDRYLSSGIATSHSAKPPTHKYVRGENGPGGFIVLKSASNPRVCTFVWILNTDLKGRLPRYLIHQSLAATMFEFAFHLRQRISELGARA
B5: StAR-related lipid transfer protein 3 (Homo sapiens), Q14849 (parent)
chain: B4 partner
partner: B1 chain

Variants of: B1
Details: with rmd3_human RMDN3, Q96TC7

effect of a mutation on the interaction	Variant
disrupting interaction strength	MAENHAQNKAKLISETRRRFEAEYVTDKSDKYDARDVERLQQDDNWVESYLSWRHNIVDETLKMLDESFQWRKEISVNDLNESSIPRWLLEIGVIYLHGYDKEGNKLFWIRVKYHVKDQKTILDKKKLIAFWLERYAKRENGKPVTVMFDLSETGINSIDMDFVRFIINCFKVYYPKYLSKIVIFDMPWLMNAAFKIVKTWLGPEAVSLLKFTSKNEVQDYVSVEYLPPHMGGTDPFKYSYPPLVDDDFQTPLCENGPITSEDETSSKEDIESDGKETLETISNEEQTPLLKKINPTESTSKAEENEKVDSKVKAFKKPLSVFKGPLLHISPAEELYFGSTESGEKKTLIVLTNVTKNIVAFKVRTTAPEKYRVKPSNSSCDPGASVDIVVSPHGGLTVSAQDDFDIMAAEMEQSSGTGPAELTQFWKEVPRNKVMEHRLRCHTVESSKPNTLTLKDNAFNMSDKTSEDICLQLSRLLESNRKLEDQVQRCIWFQQLLLSLTMLLLAFVTSFFYLLYS [R404D;L406D]

Variants of: B2
Details: with cert_human CERT1, Q9Y5P4

effect of a mutation on the interaction	Variant
disrupting interaction strength	MAENHAQNKAKLISETRRRFEAEYVTDKSDKYDARDVERLQQDDNWVESYLSWRHNIVDETLKMLDESFQWRKEISVNDLNESSIPRWLLEIGVIYLHGYDKEGNKLFWIRVKYHVKDQKTILDKKKLIAFWLERYAKRENGKPVTVMFDLSETGINSIDMDFVRFIINCFKVYYPKYLSKIVIFDMPWLMNAAFKIVKTWLGPEAVSLLKFTSKNEVQDYVSVEYLPPHMGGTDPFKYSYPPLVDDDFQTPLCENGPITSEDETSSKEDIESDGKETLETISNEEQTPLLKKINPTESTSKAEENEKVDSKVKAFKKPLSVFKGPLLHISPAEELYFGSTESGEKKTLIVLTNVTKNIVAFKVRTTAPEKYRVKPSNSSCDPGASVDIVVSPHGGLTVSAQDDFDIMAAEMEQSSGTGPAELTQFWKEVPRNKVMEHRLRCHTVESSKPNTLTLKDNAFNMSDKTSEDICLQLSRLLESNRKLEDQVQRCIWFQQLLLSLTMLLLAFVTSFFYLLYS [R404D;L406D]

Variants of: B3
Details: with mspd2_human MOSPD2, Q8NHP6

effect of a mutation on the interaction	Variant
disrupting interaction strength	F476A;Y477A

Variants of: B4
Details: with star3_human STARD3, Q14849

effect of a mutation on the interaction	Variant
disrupting interaction strength	MAENHAQNKAKLISETRRRFEAEYVTDKSDKYDARDVERLQQDDNWVESYLSWRHNIVDETLKMLDESFQWRKEISVNDLNESSIPRWLLEIGVIYLHGYDKEGNKLFWIRVKYHVKDQKTILDKKKLIAFWLERYAKRENGKPVTVMFDLSETGINSIDMDFVRFIINCFKVYYPKYLSKIVIFDMPWLMNAAFKIVKTWLGPEAVSLLKFTSKNEVQDYVSVEYLPPHMGGTDPFKYSYPPLVDDDFQTPLCENGPITSEDETSSKEDIESDGKETLETISNEEQTPLLKKINPTESTSKAEENEKVDSKVKAFKKPLSVFKGPLLHISPAEELYFGSTESGEKKTLIVLTNVTKNIVAFKVRTTAPEKYRVKPSNSSCDPGASVDIVVSPHGGLTVSAQDDFDIMAAEMEQSSGTGPAELTQFWKEVPRNKVMEHRLRCHTVESSKPNTLTLKDNAFNMSDKTSEDICLQLSRLLESNRKLEDQVQRCIWFQQLLLSLTMLLLAFVTSFFYLLYS [R404D;L406D]

Variants of: B5
Details: with mspd2_human MOSPD2, Q8NHP6

effect of a mutation on the interaction	Variant
disrupting interaction strength	MSKLPRELTRDLERSLPAVASLGSSLSHSQSLSSHLLPPPEKRRAISDVRRTFCLFVTFDLLFISLLWIIELNTNTGIRKNLEQEIIQYNFKTSFFDIFVLAFFRFSGLLLGYAVLRLRHWWVIAVTTLVSSAFLIVKVILSELLSKGAFGYLLPIVSFVLAWLETWFLDFKVLPQEAEEERWYLAAQVAVARGPLLFSGALSEGQAASPPESFAGSDNESDEEVAGKKSFSAQEREYIRQGKEATAVVDQILAQEENWKFEKNNEYGDTVYTIEVPFHGKTFILKTFLPCPAELVYQEVILQPERMVLWNKTVTACQILQRVEDNTLISYDVSAGAAGGVVSPRDFVNVRRIERRRDRYLSSGIATSHSAKPPTHKYVRGENGPGGFIVLKSASNPRVCTFVWILNTDLKGRLPRYLIHQSLAATMFEFAFHLRQRISELGARA [F207A;Y208A]
